Reference: patent US20140302020A1 (ALETHIA BIOTHERAPEUTICS, published 2014)
Blank lines part the entries; values can stand above or below the binder they belong to.

Columns and labels:
[1] = target: T1, recombinant monomeric human clusterin (human, UniProt P10909 23-449); assay: SPR (BIAcore 3000), recombinant monomeric human clusterin amine-coupled to a CM3 chip, Fab injected
T1 construct: Tags and processing into alpha and beta chains are not described; also called recombinant human clusterin; immobilized clusterin
Protocol: (§1) The purpose of these investigations is to determine the kinetics parameters of anti-clusterin antibodies. In particular, to determine whether the humanization of the 16B5 and 21B12 anti-clusterin monoclonal antibody affects the kinetics parameters of its binding to human clusterin. To this end, a kinetic analysis method was developed using the BIAcore 3000. Human clusterin was immobilized on a sensor chip. Full length antibodies or Fab fragments were injected and allowed to interact with the immobilized clusterin. This example described the exemplary antibody 16B5 but the 21B12 exemplary antibody was prepared and tested in a similar manner.
(§2) HBST (10 mM Hepes pH 7.4, 135 mM NaCl, 3.4 mM EDTA, 0.005% Tween 20) was used as running buffer for all BIAcore experiments. Recombinant monomeric clusterin was immobilized on a CM3 chip with normal amine coupling method at a flow of 5 μl/min. Surface was activated with 35 μl of a mixture of 50 mM NHS/0.2M EDC. Clusterin in 10 mM Na-acetate pH 4.5 was injected until a desired amount was captured (below 60RU). Unreacted esters were deactivated with 35 μl of 1M ethanolamine hydrochloride-NaOH pH8.5. A control surface was prepared by injecting NHS/EDC and ethanolamine in the same manner.
(§3) Kinetics analysis was conducted at a flow of 50 μl/min. Full length antibodies (mouse or humanized) or Fab were diluted in HBST. Concentration range was from 1.953-31.25 nM for the full length antibodies and 15.625-250 nM for the Fab. Each concentration was injected over the clusterin and a control surface for 5 min followed with a 5 min dissociation wash. The clusterin surface was regenerated between each antibody injection with 50 μl of 20 mM HCl.

[2] = target: T1, recombinant monomeric human clusterin; assay: SPR (BIAcore 3000), recombinant monomeric human clusterin amine-coupled to a CM3 chip, full length antibody injected
Protocol: as §1, §2, §3

[3] = target: T1, recombinant monomeric human clusterin; assay: SPR (BIAcore 3000), recombinant monomeric human clusterin amine-coupled to a CM3 chip, Fab injected; remark: listed apart in the source
Protocol: as §2, §3

[4] = target: T1, recombinant monomeric human clusterin; assay: SPR (BIAcore 3000), recombinant monomeric human clusterin amine-coupled to a CM3 chip, full length antibody injected; remark: listed apart in the source
Protocol: as §2, §3

T1 sequence (P10909 23-449 limits assumed): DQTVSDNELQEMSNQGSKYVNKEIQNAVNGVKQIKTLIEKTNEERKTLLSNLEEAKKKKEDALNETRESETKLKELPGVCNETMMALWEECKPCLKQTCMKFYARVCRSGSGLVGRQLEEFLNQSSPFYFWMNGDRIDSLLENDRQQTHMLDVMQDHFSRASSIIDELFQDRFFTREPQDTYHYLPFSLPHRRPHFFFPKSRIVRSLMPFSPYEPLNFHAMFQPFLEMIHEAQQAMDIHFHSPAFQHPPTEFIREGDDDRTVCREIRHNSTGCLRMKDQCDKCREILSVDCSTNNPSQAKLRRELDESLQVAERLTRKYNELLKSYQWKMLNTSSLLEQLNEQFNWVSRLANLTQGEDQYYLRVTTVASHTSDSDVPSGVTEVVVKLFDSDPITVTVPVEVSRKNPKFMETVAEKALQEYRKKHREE

B1: 21B12 Fab (Fab, V domains shown)
VH: QIQLVQSGPELKKPGETVKISCKASGYTFTNYGMHWVKQAPGKGLKWMGWINTYTGEPTYADDFKGRFAFSLETSASTAYLQINNLKNEDTATYFCARDGFLYFFDYWGQGTTLTVSS
VL: DIVMSQSPSSLAVSVGEKVTMSCKSSQSLLYSSNQKNYLAWYQQRPGQSPKLLIYWASTRESGVPDRFTGSGSGTDFTLTISSVKAEDLAVYYCQQYYIYPRTFGGGTKLEIK
notes: also called mouse 21B12 Fab; Fab fragment of the murine 21B12 anti-clusterin antibody
Kd [1]: 25.3 nM
koff [1]: 0.00352 s⁻¹
kon [1]: 215000 M⁻¹ s⁻¹

B5: humanized 16B5 anti-clusterin antibody (full length, human IgG2) (antibody, V domains shown)
VH: QVQLVQSGAEVKKPGATVKISCKVSGFNIKDIYMHWVQQAPGKGLEWMGRIDPAYGNTKYDPKFQGRVTITADTSTDTAYMELSSLRSEDTAVYYCARRYDTAMDYWGQGTLVTVSS
VL: DIVMTQSPDSLAVSLGERATINCKSSQSLLNSRTRKNYLAWYQQKPGQPPKLLIYWASTRESGVPDRFSGSGSGTDFTLTISSLQAEDVAVYYCKQSYNLWTFGQGTKLEIKV
notes: also called h16B5; H16B5
Kd [4]: 4.49 nM
koff [4]: 0.0015 s⁻¹
kon [4]: 345000 M⁻¹ s⁻¹

B6: humanized 16B5 Fab (Fab, V domains shown)
VH: B5 VH
VL: DIVMTQSPDSLAVSLGERATINCKSSQSLLNSRTRKNYLAWYQQKPGQPPKLLIYWASTRESGVPDRFSGSGSGTDFTLTISSLQAEDVAVYYCKQSYNLWTFGQGTKLEIK
notes: The preparation still held some F(ab')2; also called HH16B5 Fab; HH 16B5 Fab
Kd [3]: 17.2 nM
koff [3]: 0.0027 s⁻¹
kon [3]: 159000 M⁻¹ s⁻¹

B7: humanized 21B12 anti-clusterin antibody (full length, human IgG2) (antibody, V domains shown)
VH: QVQLVQSGSELKKPGASVKVSCKASGYTFTNYGMHWVRQAPGQGLEWMGWINTYTGEPTYADDFKGRFVFSLDTSVSTAYLQISSLKAEDTAVYYCARDGFLYFFDYWGQGTLVTVSS
VL: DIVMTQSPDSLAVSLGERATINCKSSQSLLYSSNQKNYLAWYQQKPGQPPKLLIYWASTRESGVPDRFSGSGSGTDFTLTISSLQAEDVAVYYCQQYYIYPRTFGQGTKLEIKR
notes: also called HH21B12
Kd [2]: 2.23 nM
koff [2]: 0.00083 s⁻¹
kon [2]: 374000 M⁻¹ s⁻¹

Other lines, results leading:

Kd [2]: 5.09 nM
koff [2]: 0.0015 s⁻¹
kon [2]: 362000 M⁻¹ s⁻¹
B2: mouse 21B12 anti-clusterin monoclonal antibody (full length) (antibody, V domains shown)
VH: B1 VH
VL: B1 VL
notes: also called murine 21B12; parent mouse 21B12

Kd [3]: 41.6 nM
koff [3]: 0.003 s⁻¹
kon [3]: 74100 M⁻¹ s⁻¹
B3: mouse 16B5 Fab (Fab, V domains shown)
VH: EVQLQQSGAELVKPGASVRLSCTTSGFNIKDIYMHWVKQRPEQGLEWIGRIDPAYGNTKYDPKFQGKATITADTSSNTAYLQLSSLTSEDTAVYYCARRYDTAMDYWGQGTSVTVSS
VL: DIVMSQSPSSLAVSAGEKVTMSCKSSQSLLNSRTRKNYLAWYQQKPGQSPKLLIYWASTRESGVPDRFTGSGSGTDFTLTISSVQAEDLAVYYCKQSYNLWTFGGGTKLEFK
notes: also called Fab mouse antibody

Kd [4]: 6.64 nM
koff [4]: 0.0017 s⁻¹
kon [4]: 329000 M⁻¹ s⁻¹
B4: mouse 16B5 anti-clusterin monoclonal antibody (full length) (antibody, V domains shown)
VH: B3 VH
VL: B3 VL
notes: Full-length mouse IgG purified from the original hybridoma; also called murine 16B5; hybridoma 16B5
